Experimental data reported in US20220073613A1, “ACTIVATABLE MASKED ANTI-CTLA4 BINDING PROTEINS” (Xilio Development, Inc., priority 2018, published 2022).

Tests used:
[1] = molecular target: T1, murine CTLA4-Fc (Mus musculus, UniProt P09793); assay: ELISA binding to murine CTLA4-Fc, with MMP2 cleavage (Example 3A); details: MMP2, 37° C. overnight
T1 construct: purchased R&D Systems
Method: ELISA plates were coated overnight in TBS with murine CTLA4-Fc (R&D Systems) and then washed with TBS with 0.05% Tween 20, and blocked with 1% BSA in PBS followed by washing with TBS with Tween 20. Dilutions of parental anti-CTLA4 antibodies and masked anti-CTLA4 antibodies in PBS were allowed to bind to CTLA4 for 60 minutes before washing with TBS Tween 20. Binding was detected with anti-muKappa-HRP (Abcam) and Super Signal Pico Chemiluminescent Substrate. Masked ratio was determined from the EC50 precleavage masked anti-CTLA4 antibody to the EC50 for parental anti-CTLA4 antibody.
Parental anti-CTLA4 antibodies and masked anti-CTLA4 antibodies were incubated with 6 nM of MMP2 (R&D Systems) in 150 mM NaCl, 50 mM Tris, pH 7.5, 10 mM CaCl2, 0.02% NP-40) at 37° C. overnight. Antibody dilutions were tested for binding to murine CTLA4-Fc by the ELISA described above and by reduced-SDS-PAGE analysis, using “Any Kd Stain-Free pre-cast polyacrylamide gels” (Bio-Rad).

[2] = molecular target: murine CTLA4 (muCTLA4hsIgG protein); assay: Low density antigen binding ELISA, with MMP2 activation (Example 3B)
Sequence of murine CTLA4 (muCTLA4hsIgG protein) (P09793 36-161 limits assumed): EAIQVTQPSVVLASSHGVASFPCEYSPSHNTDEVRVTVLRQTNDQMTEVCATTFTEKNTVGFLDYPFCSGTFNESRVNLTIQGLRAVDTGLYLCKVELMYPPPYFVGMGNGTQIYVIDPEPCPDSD
Method: All ELISA were performed in a manner substantially similar to the description below or generally consistent with methods known in the art. Polysterene 96-well microplates (Thermo Fisher Scientific) were coated with 3 ng muCTLA4hsIgG protein (Abcam) per well and stored overnight at 4° C. Plates were washed with 0.1% Tween in TBS (TBS-T), blocked with 1% BSA (Fisher) in PBS for 2 hours at 4° C., and washed with TBS-T. Serial dilutions of tested antibody in 0.05% Tween+1% BSA in PBS (PBS-TB) were added to the plate and incubated at room temperature for 1 hour. After washing with TBS-T, HRP-conjugated goat anti-mouse Kappa light chain antibody (Abcam) diluted 1:4000 in PBS-TB was applied to the wells and incubated at room temperature for 1 hour. Plates were washed with TBS-T, chemiluminescent HRP substrate was applied to plate, and luminescence was recorded using a spectrophotometer (Synergy HT, BioTek). Data was analyzed with GraphPad Prism, version 7.02.
Parental anti-CTLA4 antibodies, masked anti-CTLA4 antibodies, and non-cleavable masked anti-CTLA4 antibodies were each diluted to 1 μM solution in cleavage buffer (150 mM NaCl; 50 mM Tris, pH 7.5; 10 mM CaCl2; 0.02% NP-40). Recombinant MMP2 (R&D Systems) activated with 1 mM p-aminophenylmercuric acetate […] for 1 hour at 37° C. was added to each antibody solution to a final concentration of 4 nM and incubated overnight at 37° C. […]

[3] = system: MC38 tumors; assay: MC38 tumor eradication and T cell population analysis (Example 4A); format: in vivo, C57Bl/6 mice
Method: C57Bl/6 mice with 50-100 mm^3 MC38 tumors were administered intraperitoneally a single dose of 200 μg of IgG2a control (BioXcel), parental anti-CTLA4 antibody reactive to murine CTLA4 (9D9.IgG2a, light chain comprising SEQ ID NO:237, heavy chain comprising SEQ ID NO:319), activatable masked anti-CTLA4 antibody reactive to murine CTLA4 (light chain comprising SEQ ID NO:238, heavy chain comprising SEQ ID NO:319), masked anti-CTLA4 antibody 1005 reactive to murine CTLA4 (light chain comprising SEQ ID NO:240, heavy chain comprising SEQ ID NO:319), or anti-CTLA4 antibody 1 cross-reactive with human CTLA4 and murine CTLA4 (light chain comprising SEQ ID NO:327, heavy chain comprising SEQ ID NO:366). Body weight and tumor size were measured biweekly.
C57Bl/6 mice with 50-100 mm^3 MC38 tumors were dosed with three […] doses on day 1, 4, and 8 with IgG2a control (BioXcel), parental anti-CTLA4 antibody (9D9.IgG2a, light chain comprising SEQ ID NO:237, heavy chain comprising SEQ ID NO:319 masked anti-CTLA4 antibody 2 (light chain comprising SEQ ID NO:238, heavy chain comprising SEQ ID NO:319), masked anti-CTLA4 antibody 1005 (light chain comprising SEQ ID NO:240, heavy chain comprising SEQ ID NO:319), or anti-CTLA4 antibody 1 cross-reactive with human CTLA4 and murine CTLA4 (light chain comprising SEQ ID NO:327, heavy chain comprising SEQ ID NO:366). On day 9, mice were sacrificed and tumors were dissociated using gentleMACS™ protocol “Tumor Dissociation Kit” (Milteni) and filtered through a 70 micron cell strainer and rinsed twice in PBS/2.5% FBS buffer to remove enzymatic buffer. […] and spleen cells were dissociated by gently grinding the tissue across a mesh. Red blood cells were lysed with ACK buffer (Thermo Fisher) prior to staining of the cells. Staining of cells was with fluorescently labeled anti-CD45 (BioLegend), anti-CD3 (BioLegend), anti-CD4 (BioLegend), anti-CD8 (BD Biosciences), anti-CD25 (BioLegend). Prior to staining with anti-FoxP3 (eBioscience), and anti-Ki67 (eBioscience) the cells were permeabilized. Stained cells were analyzed by fluorescent activate cell sorting (FACS) for the percentages of CD4+, CD8+, and CD25 Foxp3+(Tregs) cells of the live (Live/Dead Aqua purchased from Life) CD45 positive cells, as well as the percentage of these three cell populations that were Ki67 positive, a marker of cell proliferation.

[4] = system: MC38 tumors; assay: MC38 mouse colorectal carcinoma model, tumor and Treg analysis (Example 4B); format: in vivo, C57BL/6 mice
Method: The effects of activatable masked anti-CTLA4 antibodies on tumor growth as well as immune parameters in the tumor and in the periphery were investigated using a MC38 mouse colorectal carcinoma model, previously shown to respond to treatment with the 9D9 antibody. See Peggs K. S. et al., J Exp Med., 206:1717-1725, (2009) and Selby M. J., et al., Cancer Immunol Res., 1:32-42, (2013).
To assess anti-tumor efficacy, antibodies formulated in PBS were administered intraperitoneally (i.p.) on day 1 post-randomization at […] per dose in a volume of ≤250 μL. Tumor volumes were determined twice weekly. All mice were monitored individually and sacrificed upon either tumor volume reaching 1500 mm3 or 45 days post-randomization. To assess biological function of antibodies on regulatory T cells (Tregs) by FACS analysis as described below, tumor-bearing mice were administered antibody intraperitoneally on days 1, 4, and 8 post-randomization at […] per dose in a volume of ≤250 μL. The control antibody was muIgG2a (BioXcell). All mice were sacrificed on day 9; tumor and spleen were harvested for FACS analysis.
Mouse tumor samples were dissociated according to standard protocol by Tumor Dissociation Kit (gentleMACS) and passed through a 70 μm cell strainer. Spleen samples were dissociated with the back of a syringe in a 70 μm cell strainer. Red blood cells were lysed with ACK buffer (Lonza). Final cell suspensions were washed and resuspended in Staining Buffer (PBS pH 7.4, 2.5% FBS, 0.09% NaN3) at 2×10^7 cells/mL. Cells were treated with Mu Trustain fcX (BioLegend) to block Fc receptors prior to being stained with antibodies against CD45 (BioLegend), CD3 (BioLegend), CD4 (BioLegend), CD8 (BD Biosciences), CD25 (BioLegend), and Live/Dead Aqua (ThermoFisher). For intracellular staining, cells were fixed, permeabilized, and stained with antibodies against FoxP3 (eBioscience) and Ki-67 (eBioscience). Single color stains and FMOs were run for gating purposes.

[5] = multi-dose, compared to parental antibody (9D9.IgG2a)

T1 sequence (P09793 with tags, fused parts or gaps limits assumed): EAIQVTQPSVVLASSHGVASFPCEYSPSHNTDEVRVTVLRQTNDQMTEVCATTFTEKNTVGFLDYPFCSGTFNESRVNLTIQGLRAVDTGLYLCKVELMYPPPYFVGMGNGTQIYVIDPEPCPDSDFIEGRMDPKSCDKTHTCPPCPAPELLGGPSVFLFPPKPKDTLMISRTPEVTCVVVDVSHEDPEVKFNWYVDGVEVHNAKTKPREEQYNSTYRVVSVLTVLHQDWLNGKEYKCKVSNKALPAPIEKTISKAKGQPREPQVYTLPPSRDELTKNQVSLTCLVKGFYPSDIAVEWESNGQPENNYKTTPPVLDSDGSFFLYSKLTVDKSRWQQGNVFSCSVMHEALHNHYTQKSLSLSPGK

binding to murine CTLA4 after protease activation [1]: fully restored binding | EC50 ([2]; treated with recombinant MMP2): 290 ± 30 pM | fold lower binding to murine CTLA4 as compared to parental anti-CTLA4 antibody ([2]; without protease, listed as Masked 9D9): approximately 156 fold
B1: activatable masked anti-CTLA4 antibody: 9D9 masked with CNLIVEGHC via MMP2/7/9 cleavable linker; light chain SEQ ID NO:238, heavy chain SEQ ID NO:319 (antibody)
heavy: EAKLQESGPVLVKPGASVKMSCKASGYTFTDYYMNWVKQSHGKSLEWIGVINPYNGDTSYNQKFKGKATLTVDKSSSTAYMELNSLTSEDSAVYYCARYYGSWFAYWGQGTLITVSSAKTTAPSVYPLAPVCGDTTGSSVTLGCLVKGYFPEPVTLTWNSGSLSSGVHTFPAVLQSDLYTLSSSVTVTSSTWPSQSITCNVAHPASSTKVDKKIEPRGPTIKPCPPCKCPAPNLLGGPSVFIFPPKIKDVLMISLSPIVTCVVVDVSEDDPDVQISWFVNNVEVHTAQTQTHREDYNSTLRVVSALPIQHQDWMSGKEFKCKVNNKDLPAPIERTISKPKGSVRAPQVYVLPPPEEEMTKKQVTLTCMVTDFMPEDIYVEWTNNGKTELNYKNTEPVLDSDGSYFMYSKLRVEKKNWVERNSYSCSVVHEGLHNHHTTKSFSRTPGK
light: ACNLIVEGHCGGSVPLSLYSGGGDIVMTQTTLSLPVSLGDQASISCRSSQSIVHSNGNTYLEWYLQKPGQSPKLLIYKVSNRFSGVPDRFSGSGSGTDFTLKISRVEAEDLGVYYCFQGSHVPYTFGGGTKLEIKRADAAPTVSIFPPSSEQLTSGGASVVCFLNNFYPKDINVKWKIDGSERQNGVLNSWTDQDSKDSTYSMSSTLTLTKDEYERHNSYTCEATHKTSTSPIVKSFNRNEC
proliferation of CD4+ cells in the periphery (spleen), % Ki67+ [3, 5]: reduced proliferation | proliferation of CD8+ T cells in the periphery (spleen), % Ki67+ [3, 5]: reduced proliferation | tumor volume ([3]; single dose of 200 μg intraperitoneally): equivalent efficacy in reducing tumor volume | regulatory T lymphocytes (Tregs) population in the tumor ([3]; three doses on day 1, 4, and 8, day 9): preferentially depleted | proliferating (Ki67+ FOXP3+) Tregs in the spleens ([4]; doses on days 1, 4, and 8, 24 hours after last dose): marginal increases | intratumoral Treg abundance ([4]; doses on days 1, 4, and 8, 24 hours after last dose, flow cytometry): as effective in reducing Tregs as parental anti-CTLA4 antibody | growth of subcutaneously implanted MC38 tumors ([4]; i.p. on day 1 post-randomization): induced tumor regression
